Measurements taken from the RNAGym collection of RNA variant scans (doi:10.1093/molbev/msab373).

B1: Azoarcus group I ribozyme (parent)
chain: GUGCCUUGCGCCGGGAAACCACGCAAGGGAUGGUGUCAAAUUCGGCGAAACCUAAGCGCCCGCCCGGGCGUAUGGCAACGCCGAGCCAAGCUUCGGCGCCUGCGCCGAUGAAGGUGUAGAGACUAGACGGCACCCACCUAAGGCAAACGCUAUGGUGAAGGCAUAGUCCAGGGAGUGGCGAAAGUCACACAAACCGG

Variants of: B1
Assay: reverse-splicing fitness (ratio to wild type); higher = more active; in vitro selection; Mg2+ level not given
In short: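 An in vitro group I ribozyme library with randomized positions was T7-transcribed and gel-purified. In triplicate, 10 pmol RNA in EPPS pH 7.5 was reacted with 50 pmoles of a 30-nt RNA substrate for 1 h at 37 °C across several added MgCl2 levels (1–48 mM), then stopped with EDTA. Products were reverse transcribed from a substrate-complementary primer, PCR-amplified and sequenced (HiSeq 4000). Fitness is a variant's read proportion after selection over that before, normalised to wild type.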

Row | Variant | reverse-splicing fitness
1 | C82G A111U A120U A145U C150A U176G | 0.00291
2 | C82G A111U A120U C169G U176A | 0.00374
3 | C82G A111U A120U C169G U176C | 0.00385
4 | C82G A111U A120U C169G U176G | 0.00175
5 | C82G A111U A120U C150A C169U | 0.00448
6 | C82G A111U A120U C150A C169A | 0.0047
7 | C82G A111U A120U C150A C169G | 0.00506
8 | C82G A111U A120U A145G C169U U176A | 0.00386
9 | C82G A111U A120U A145G C169U U176C | 0.004
10 | C82G A111U A120U A145G C169U U176G | 0.00203
11 | C82G A111U A120U A145U C150U C169U U176A | 0.00325
12 | C82G A111U A120U A145U C150U C169U U176G | 0.0023
13 | C82G A111U A120U A145U C150U C169U U176C | 0.00369
14 | C82G A111U A120U A145U C150G C169A | 0.00362
15 | C82G A111U A120U A145U C150G C169U | 0.0032
16 | C82G A111U A120U A145U C150G C169G | 0.00336
17 | C82G A111U A120U A145G C150U C169U U176C | 0.00501
18 | C82G A111U A120U A145G C150U C169U U176A | 0.00518
19 | C82G A111U A120U A145G C150U C169U U176G | 0.00302
20 | C82G A111U A145G C150U C169G U176G | 0.0058
21 | C82G A111U A145G C150U C169G U176C | 0.0191

Row | Variant | reverse-splicing fitness
22 | C82G A111U A145G C150U C169G U176A | 0.0141
23 | C82G A111U A120U A145U C169A U176A | 0.00292
24 | C82G A111U A120U A145U C169A U176G | 0.00176
25 | C82G A111U A120U A145U C169A U176C | 0.00203
26 | C82G A111U A145G | 0.424
27 | C82G A111U A145C | 0.365
28 | C82G A111U A145U | 0.387
29 | C82G A111U A145C C150G C169U U176G | 0.00634
30 | C82G A111U A145C C150G C169U U176C | 0.0102
31 | C82G A111U A145C C150G C169U U176A | 0.00891
32 | C82G A111U A120U A145G C150U U176C | 0.0151
33 | C82G A111U A120U A145G C150U U176G | 0.00433
34 | C82G A111U A120U A145G C150U U176A | 0.0103
35 | C82G A111U A145G C150A C169A | 0.0112
36 | C82G A111U A145G C150A C169G | 0.00989
37 | C82G A111U A145G C150A C169U | 0.0113
38 | C82G A111U A145C U176G | 0.0756
39 | C82G A111U A145C U176C | 0.224
40 | C82G A111U A145C U176A | 0.19
41 | C82G A111U A145U C150A C169G U176G | 0.0066
42 | C82G A111U A145U C150A C169G U176C | 0.0144

Row | Variant | reverse-splicing fitness
43 | C82G A111U A145U C150A C169G U176A | 0.014
44 | C82G A111U A145C C150U U176C | 0.0544
45 | C82G A111U A145C C150U U176G | 0.0188
46 | C82G A111U A145C C150U U176A | 0.0473
47 | C82G A111U A145U C150U C169A | 0.00988
48 | C82G A111U A145U C150U C169G | 0.00884
49 | C82G A111U A145C C150G C169G U176C | 0.00772
50 | C82G A111U A145C C150G C169G U176G | 0.00602
51 | C82G A111U A145C C150G C169G U176A | 0.00943
52 | C82G A111U A120U A145G C150G C169G U176C | 0.00596
53 | C82G A111U A120U A145G C150G C169G U176G | 0.00407
54 | C82G A111U A145G C150A C169A U176A | 0.0183
55 | C82G A111U A145G C150A C169A U176C | 0.0216
56 | C82G A111U A145G C150A C169A U176G | 0.00721
57 | C82G A111U A120U A145U C150U U176G | 0.00302
58 | C82G A111U A120U A145U C150U U176A | 0.00894
59 | C82G A111U A120U A145U C150U U176C | 0.0131
60 | C82G A111U A145C C169G U176G | 0.00528
61 | C82G A111U A145C C169G U176C | 0.0144
62 | C82G A111U A145C C169G U176A | 0.0258
63 | C82G A111U A120U A145U C150G C169A U176C | 0.00246

Row | Variant | reverse-splicing fitness
64 | C82G A111U A120U A145U C150G C169A U176G | 0.00233
65 | C82G A111U A120U A145U C150G C169A U176A | 0.00343
66 | C82G A111U A145G C169U U176A | 0.0134
67 | C82G A111U A145G C169U U176C | 0.0155
68 | C82G A111U A145G C169U U176G | 0.00532
69 | C82G A111U A120U A145U C150U C169A U176G | 0.00252
70 | C82G A111U A120U A145U C150U C169A U176A | 0.00283
71 | C82G A111U A120U A145U C150U C169A U176C | 0.0027
72 | C82G A111U A145G C150A C169U U176C | 0.0149
73 | C82G A111U A145G C150A C169U U176A | 0.0166
74 | C82G A111U A145G C150A C169U U176G | 0.00791
75 | C82G A111U A145U C150A | 0.0284
76 | C82G A111U A145U C150U | 0.239
77 | C82G A111U A145U C150G | 0.0323
78 | C82G A111U A120U C150G C169G U176C | 0.00362
79 | C82G A111U A120U C150G C169G U176A | 0.00513
80 | C82G A111U A120U C150G C169G U176G | 0.003
81 | C82G A111U A145G C150A | 0.0434
82 | C82G A111U A145G C150G | 0.0339
83 | C82G A111U A145G C150U | 0.298
